Data from publication PMC4342785 (Nature, 2015).

Molecular target: T1, mouse core RAG1 (384–1008aa) (mouse, UniProt P15919 384-1008)
T1 sequence (looked up): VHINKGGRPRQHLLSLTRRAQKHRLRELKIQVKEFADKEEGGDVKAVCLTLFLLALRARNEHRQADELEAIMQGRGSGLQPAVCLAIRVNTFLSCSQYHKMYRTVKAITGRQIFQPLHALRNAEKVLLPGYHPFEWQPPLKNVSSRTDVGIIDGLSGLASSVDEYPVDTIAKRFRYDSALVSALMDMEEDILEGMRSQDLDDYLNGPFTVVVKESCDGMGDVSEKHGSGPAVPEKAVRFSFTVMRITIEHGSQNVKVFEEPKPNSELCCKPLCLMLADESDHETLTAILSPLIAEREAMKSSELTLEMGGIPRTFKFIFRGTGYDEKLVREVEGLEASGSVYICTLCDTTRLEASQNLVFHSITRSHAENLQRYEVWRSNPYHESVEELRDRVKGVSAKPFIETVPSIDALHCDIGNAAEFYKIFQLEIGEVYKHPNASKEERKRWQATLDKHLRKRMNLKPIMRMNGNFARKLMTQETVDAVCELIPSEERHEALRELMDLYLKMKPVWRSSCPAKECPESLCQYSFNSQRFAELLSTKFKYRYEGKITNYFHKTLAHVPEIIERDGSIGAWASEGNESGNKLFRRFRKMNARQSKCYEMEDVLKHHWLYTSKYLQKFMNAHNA
Assay: crystal structure

binding result: binds
B1: mouse core RAG2 (1–387aa), M1V (domain or fragment, UniProt P21784 1-387, looked up)
chain: VSLQMVTVGHNIALIQPGFSLMNFDGQVFFFGQKGWPKRSCPTGVFHFDIKQNHLKLKPAIFSKDSCYLPPLRYPATCSYKGSIDSDKHQYIIHGGKTPNNELSDKIYIMSVACKNNKKVTFRCTEKDLVGDVPEPRYGHSIDVVYSRGKSMGVLFGGRSYMPSTQRTTEKWNSVADCLPHVFLIDFEFGCATSYILPELQDGLSFHVSIARNDTVYILGGHSLASNIRPANLYRIRVDLPLGTPAVNCTVLPGGISVSSAILTQTNNDEFVIVGGYQLENQKRMVCSLVSLGDNTIEISEMETPDWTSDIKHSKIWFGSNMGNGTIFLGIPGDNKQAMSEAFYFYTLRCSEEDLSEDQKIVSNSQTSTEDPGDSTPFEDSEEFCFS
